The values below come from the Human Domainome abundance scans (Beltran et al. 2025).

The chains are these.
B1: Ankyrin-2, residues 3571 to 3650; numbered along this chain, Q01484 (parent)
chain: ERLAYIADHLGFSWTELARELDFTEEQIHQIRIENPNSLQDQSHALLKYWLERDGKHATDTNLVECLTKINRMDIVHLME

± gives the uncertainty stated by the source.

The variants in this data set derive from B1. The data set can be described thus: abundance fitness (aPCA) (normalised: wild type 0, dead -1); higher = more abundant; growth selection in yeast, the domain comes from the species named. As to conditions: Homo sapiens.
As for ERLAYIADHLGFSWTELRRELDFTEEQIHQIRIENPNSLQDQSHALLKYWLERDGKHATDTNLVECLTKINRMDIVHLME, the abundance fitness is -1.37 ± 0.3.
As to ERLAYIADHLGFSWTELMRELDFTEEQIHQIRIENPNSLQDQSHALLKYWLERDGKHATDTNLVECLTKINRMDIVHLME, the abundance fitness is -0.519 ± 0.19.
On to ERLAYIADHLGFSWTELVRELDFTEEQIHQIRIENPNSLQDQSHALLKYWLERDGKHATDTNLVECLTKINRMDIVHLME, for which the abundance fitness is -0.687 ± 0.12.
As for ERLAYIADHLGFSWTELLRELDFTEEQIHQIRIENPNSLQDQSHALLKYWLERDGKHATDTNLVECLTKINRMDIVHLME, the figure is -1.03 ± 0.16; as for ERLAYIADHLGFSWTELSRELDFTEEQIHQIRIENPNSLQDQSHALLKYWLERDGKHATDTNLVECLTKINRMDIVHLME, -0.196 ± 0.089; as for ERLAYIADHLGFSWTELDRELDFTEEQIHQIRIENPNSLQDQSHALLKYWLERDGKHATDTNLVECLTKINRMDIVHLME, -0.514 ± 0.38.
For ERLAYIADHLGFSWTELFRELDFTEEQIHQIRIENPNSLQDQSHALLKYWLERDGKHATDTNLVECLTKINRMDIVHLME, the abundance fitness was -1.07 ± 0.42.
On to ERLAYIADHLGFSWTELPRELDFTEEQIHQIRIENPNSLQDQSHALLKYWLERDGKHATDTNLVECLTKINRMDIVHLME, for which the abundance fitness is -1.17 ± 0.22.
For ERLAYIADHLGFSWTELWRELDFTEEQIHQIRIENPNSLQDQSHALLKYWLERDGKHATDTNLVECLTKINRMDIVHLME, the abundance fitness was -0.859 ± 0.34.
For the variant ERLAYIADHLGFSWTELGRELDFTEEQIHQIRIENPNSLQDQSHALLKYWLERDGKHATDTNLVECLTKINRMDIVHLME, the abundance fitness is -0.128 ± 0.1.
As to ERLAYIADHLGFSWTELTRELDFTEEQIHQIRIENPNSLQDQSHALLKYWLERDGKHATDTNLVECLTKINRMDIVHLME, the abundance fitness is -0.903 ± 0.35.
Consider ERLAYIADHLGFSSTELARELDFTEEQIHQIRIENPNSLQDQSHALLKYWLERDGKHATDTNLVECLTKINRMDIVHLME, for which the abundance fitness is -0.812 ± 0.12.
In the case of ERLAYIADHLGFSVTELARELDFTEEQIHQIRIENPNSLQDQSHALLKYWLERDGKHATDTNLVECLTKINRMDIVHLME, the abundance fitness was -0.283 ± 0.058.
ERLAYIADHLGFSYTELARELDFTEEQIHQIRIENPNSLQDQSHALLKYWLERDGKHATDTNLVECLTKINRMDIVHLME: the abundance fitness was -0.31 ± 0.32.
Consider ERLAYIADHLGFSWTELAAELDFTEEQIHQIRIENPNSLQDQSHALLKYWLERDGKHATDTNLVECLTKINRMDIVHLME, for which the abundance fitness is -0.076 ± 0.091.
In the case of ERLAYIADHLGFSWTELACELDFTEEQIHQIRIENPNSLQDQSHALLKYWLERDGKHATDTNLVECLTKINRMDIVHLME, the abundance fitness is -0.089 ± 0.12.
On to ERLAYIADHLGFSWTELADELDFTEEQIHQIRIENPNSLQDQSHALLKYWLERDGKHATDTNLVECLTKINRMDIVHLME, for which the abundance fitness is -0.006 ± 0.18.
As to ERLAYIADHLGFSWTELAFELDFTEEQIHQIRIENPNSLQDQSHALLKYWLERDGKHATDTNLVECLTKINRMDIVHLME, the abundance fitness was -0.195 ± 0.15.
Take ERLAYIADHLGFSWTELAEELDFTEEQIHQIRIENPNSLQDQSHALLKYWLERDGKHATDTNLVECLTKINRMDIVHLME: the abundance fitness was found to be 0.101 ± 0.17.
Turning to ERLAYIADHLGFSWTEPARELDFTEEQIHQIRIENPNSLQDQSHALLKYWLERDGKHATDTNLVECLTKINRMDIVHLME, the abundance fitness is -1.17 ± 0.2.
For ERLAYIADHLGFSWTETARELDFTEEQIHQIRIENPNSLQDQSHALLKYWLERDGKHATDTNLVECLTKINRMDIVHLME, the abundance fitness is -0.235 ± 0.086.
Take ERLAYIADHLGFSWTEAARELDFTEEQIHQIRIENPNSLQDQSHALLKYWLERDGKHATDTNLVECLTKINRMDIVHLME: the abundance fitness was -0.134 ± 0.076.
Regarding ERLAYIADHLGFSWTEVARELDFTEEQIHQIRIENPNSLQDQSHALLKYWLERDGKHATDTNLVECLTKINRMDIVHLME, the abundance fitness was -0.096 ± 0.078.
Regarding ERLAYIADHLGFSWTEYARELDFTEEQIHQIRIENPNSLQDQSHALLKYWLERDGKHATDTNLVECLTKINRMDIVHLME, the abundance fitness was -0.478 ± 0.16.
Take ERLAYIADHLGFSWTERARELDFTEEQIHQIRIENPNSLQDQSHALLKYWLERDGKHATDTNLVECLTKINRMDIVHLME: the abundance fitness was -1.23 ± 0.12.
For ERLAYIADHLGFSWTEMARELDFTEEQIHQIRIENPNSLQDQSHALLKYWLERDGKHATDTNLVECLTKINRMDIVHLME, the abundance fitness is -0.119 ± 0.11.
With ERLAYIADHLGFSWTESARELDFTEEQIHQIRIENPNSLQDQSHALLKYWLERDGKHATDTNLVECLTKINRMDIVHLME, the abundance fitness was -1.03 ± 0.12.
Consider ERLAYIADHLGFSWTECARELDFTEEQIHQIRIENPNSLQDQSHALLKYWLERDGKHATDTNLVECLTKINRMDIVHLME, for which the abundance fitness was -0.035 ± 0.089.
As for ERLAYIADHLGFSWTENARELDFTEEQIHQIRIENPNSLQDQSHALLKYWLERDGKHATDTNLVECLTKINRMDIVHLME, the abundance fitness is -1.15 ± 0.42.
Consider ERLAYIADHLGFSWTEIARELDFTEEQIHQIRIENPNSLQDQSHALLKYWLERDGKHATDTNLVECLTKINRMDIVHLME, for which the abundance fitness was -0.024 ± 0.18.
Under ERLAYIADHLGFSWTEEARELDFTEEQIHQIRIENPNSLQDQSHALLKYWLERDGKHATDTNLVECLTKINRMDIVHLME stands -1.05 ± 0.43; under ERLAYIADHLGFSWTEHARELDFTEEQIHQIRIENPNSLQDQSHALLKYWLERDGKHATDTNLVECLTKINRMDIVHLME, -0.91 ± 0.38; under ERLAYIADHLGFSWTEFARELDFTEEQIHQIRIENPNSLQDQSHALLKYWLERDGKHATDTNLVECLTKINRMDIVHLME, 0.08 ± 0.12.
As for ERLAYIADHLGFSWTEWARELDFTEEQIHQIRIENPNSLQDQSHALLKYWLERDGKHATDTNLVECLTKINRMDIVHLME, the figure is -0.692 ± 0.11; as for ERLAYIADHLGFSWTEGARELDFTEEQIHQIRIENPNSLQDQSHALLKYWLERDGKHATDTNLVECLTKINRMDIVHLME, -1.04 ± 0.094.
